Measurements: the nanobody polyreactivity screen of Harvey et al. (2022)

Test: yeast display, Sf9 membrane polyspecificity reagent, FACS + sequencing; frameworks hold sequencing errors
Method in brief: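 Using colony PCR, genes from sorted yeast display clones were amplified, then sequenced on MiSeq at 2 × 250 and filtered by CDR length. The clones had been stained with 10% biotinylated, detergent-solubilized Sf9 membrane reagent for 1 hour at 4 °C and sorted by FACS into low and high (top ~1%) gates on anti-HA and streptavidin fluorescence. Polyreactivity labels come from the gate of origin.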

Sequence | polyreactivity (PSR sort gate)
QVQIVESGGGLVQAGRSLRLSCAASGLIFRRYTMGWYRQAPGKERELVAAIRNSGSSTDYADSVKGRFTISRDNAKNTVYLQMNSLKPEYTAVYYCAKRSACKLTYDSWGQGTQVTGSS | low polyreactivity
QVQLVESGGGLVQAGGSLRLSCAASGITFRYYAMGWYRQAPGKERELVASITSGGVNTYYADSVKGRFTISRDNAKNTVYLQMNSLKPEDTAVYYCATRFSYSALGGYDYWGQGTQVTVSS | low polyreactivity
QVQLVESGGGLVQAGGSLRLSCAASGRTFYINAMGWSRQAPGKERELVAAITWSGGRTYYADSVKGRFTISRDNAKNTVYLQMNSLKPEDTAVYYCAVGYVYTRKGRVQPVKYDYWGQGTQVTVSS | high polyreactivity
QVQLQESGGGLVQEGGSLRLSCAASGSIFKVVHMGLYRQAPAKEREFVATIGEGGNTYYADSVKGRFTISRDNAKNTVYLQMNSLKPVDTAVYFYAVVLGTSYRYTYWGQGTQVTVSS | low polyreactivity
QVQLVESAAGLVQAGGSLRLSCAASGRNFYYYAMGWYRQAPGKEREVVAAINWSGGGTYYADSVKGRFTISRDNAKNTVYLQMNSLKPEDTAVYYCAAGFRYRYYWGQGTQVTVSS | high polyreactivity
QVQLVESGGGLVQAGGSLRLSCAASGSIFGDNTMGWYRQAPGKERELVAAISWRGGSTYYADSVKGRFTISRDNAKNTVYLQMNSLKPEDTAVYYCIGGPGGYDYWGQGTQVTVSS | low polyreactivity
QVELVESGGGLVQPGGSLRLSCAASGRTFYLNAMGWYRQAPGKEREFVARITWSGGSTYYADSVKGRFTISRDNAKNTVYLQMNSLKPEDTAVYYCAARVRLYRGFTKYDYWGQGTQVTVSS | high polyreactivity
QVHLVESGGGLVQAGGSLRLSCAASGSTFYIYAKGWYRQAPGKERELVAAIDWTGSTYYADSVKGRFTISRDNAKNTVYLQMNSLKPEDPAVYDCAAYYDLEDDSYRLNSWGQGTQVTVSS | high polyreactivity
QVQLVESGGGLVQAGGSLRLSCAASGSIFAYYAMGWYRQAPGKERELVAAITSGDSTYYADSVKGRFTISRDNAKNTVYLQMNSLKPEDTAVYYCAADHIWFYFYLYDYWGQGTQVTVSS | high polyreactivity
PVQLVESGGGLVQAGGSLRLSCAASGFTFYSYAMGWYRQAPGKEREFVAAGSTYYADSVKGRFTISRDNAKNTVYLQMNSLKPEDTAVYYCAADPWIYVQSYGFWGQGTQVTVSS | low polyreactivity
QVQLVESGGGLVQAGGSLRLSCAASGRTYRSNVMGWYRQAPGKERELVASITWSGGTTYYADSVKVRFTISRDNAKNTVYLQMNSLKPEDTAVYYCNAADERSQGWVGYDHWGQCTQVTVSS | low polyreactivity
QVQLVESGGGLVQAGGSHRLSCAASGFTFYIYAMGWYRQAPGKERELVAAINIGGGGTYYADSVKGRFTISRDNAKNTVYLLMHSLKPEDTAVYDCAAVYCYDYYCTEYDYWGQGTQVNVSS | low polyreactivity
QVPQQESGGGLVQAGGSLRLSCAASGTIFQLTVMGRYRQAPGKERELVSSIDYGGNTNYADIVKGRFSISRVNAKNTVYLQMNRLKPEDTSVYYFAASSDSWTTHPYWGQATQVTVSS | low polyreactivity
QVQLVESGGGLVQAGGSLRLSCGASGLTFVWYGMGWYRQAPGKERELVAAITRGGSTYYADSVKGRFTISRDNAKNTVYLQMNSVKPEDTAVYYCAARYKYTGYDYWGQGTQVTVSS | high polyreactivity
QFQLVESGGGLVQAGGSLRLSCAASRYTFTLYAMGCYRQAPGKVRELVAAISWSSGSTYYADSVKGRFTISRDNEKNTVYLQMNSLKPEDTAVYYCNARRFGLTQYYYWGQGTQVTVSS | low polyreactivity
QVQLVESGGGLVQAGGSLRLSCAASGSTFVYYAMGWYRQAPGKEREFVAAISTNGGSTYYADSVKGRYTISRDNAKNTVYLQMNSLKPEDTAVYYCAARWYWGQGTQGTVSS | high polyreactivity
